This note sets out measurements from patent publication US20100331233A1, “CRYSTAL OF XPA AND ERCC1 COMPLEX AND USES THEREOF” (priority 2007, published 2010).

T1: ERCC1-XPF (Homo sapiens, UniProt P07992)
T1 sequence (P07992 1-297): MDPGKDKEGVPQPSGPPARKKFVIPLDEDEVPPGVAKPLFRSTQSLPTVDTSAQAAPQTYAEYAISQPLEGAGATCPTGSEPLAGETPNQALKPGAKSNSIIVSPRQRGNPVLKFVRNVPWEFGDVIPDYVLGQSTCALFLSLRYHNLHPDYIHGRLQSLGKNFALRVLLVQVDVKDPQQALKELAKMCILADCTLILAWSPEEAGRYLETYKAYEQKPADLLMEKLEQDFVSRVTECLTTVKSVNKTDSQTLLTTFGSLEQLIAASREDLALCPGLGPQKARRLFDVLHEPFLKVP
T1 sequence (Q92889 1-916 partner): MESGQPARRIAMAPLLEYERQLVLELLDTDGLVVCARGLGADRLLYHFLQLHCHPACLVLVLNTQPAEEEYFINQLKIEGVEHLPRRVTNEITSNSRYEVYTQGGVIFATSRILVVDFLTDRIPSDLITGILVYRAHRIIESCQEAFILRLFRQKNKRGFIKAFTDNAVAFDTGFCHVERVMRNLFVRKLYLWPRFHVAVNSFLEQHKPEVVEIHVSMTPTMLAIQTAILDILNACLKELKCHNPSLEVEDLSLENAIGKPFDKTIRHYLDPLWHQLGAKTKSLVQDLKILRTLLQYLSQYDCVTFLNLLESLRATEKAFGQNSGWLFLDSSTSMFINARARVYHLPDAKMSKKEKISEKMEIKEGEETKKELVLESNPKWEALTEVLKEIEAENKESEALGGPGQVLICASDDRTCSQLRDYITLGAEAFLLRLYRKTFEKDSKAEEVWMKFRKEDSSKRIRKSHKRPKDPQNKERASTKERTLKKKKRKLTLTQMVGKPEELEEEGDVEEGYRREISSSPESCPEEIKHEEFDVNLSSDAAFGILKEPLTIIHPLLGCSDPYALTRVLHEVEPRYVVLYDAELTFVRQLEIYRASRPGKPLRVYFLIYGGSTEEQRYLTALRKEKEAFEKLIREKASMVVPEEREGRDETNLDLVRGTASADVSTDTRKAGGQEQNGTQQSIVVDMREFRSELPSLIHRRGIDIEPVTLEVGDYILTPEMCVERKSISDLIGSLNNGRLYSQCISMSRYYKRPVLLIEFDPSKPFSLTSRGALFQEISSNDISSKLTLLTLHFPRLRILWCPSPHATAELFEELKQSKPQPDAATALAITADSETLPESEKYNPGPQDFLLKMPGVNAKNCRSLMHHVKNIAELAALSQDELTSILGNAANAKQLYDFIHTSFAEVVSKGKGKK

T2: ERCC192-214 (Homo sapiens, UniProt P07992)
T2 construct: an ERCC1 central domain fragment consisting of amino acids 92-214 preceded by an N-terminal hexahistidine tag; made in house; host or cells: E. coli BL21(DE3), M9 minimal media with 15N-labeled NH4Cl
T2 sequence (P07992 92-214): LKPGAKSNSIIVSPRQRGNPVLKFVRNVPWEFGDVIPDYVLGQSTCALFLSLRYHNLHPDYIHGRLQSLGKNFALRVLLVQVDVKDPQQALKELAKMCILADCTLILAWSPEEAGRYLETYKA

T3: ERCC196-214 (central domain of ERCC1, N-terminal His6 tag) (Homo sapiens (Human), UniProt P07992 96-214)
T3 construct: not shown: N-terminal His6 tag
T3 sequence: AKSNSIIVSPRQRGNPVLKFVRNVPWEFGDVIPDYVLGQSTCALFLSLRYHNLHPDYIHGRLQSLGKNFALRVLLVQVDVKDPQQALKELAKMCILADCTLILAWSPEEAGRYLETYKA

B1: ERCC192-214 (central domain of ERCC1, N-terminal His6 tag) (other)
chain: MGSSHHHHHHSQDPLKPGAKSNSIIVSPRQRGNPVLKFVRNVPWEFGDVIPDYVLGQSTCALFLSLRYHNLHPDYIHGRLQSLGKNFALRVLLVQVDVKDPQQALKELAKMCILADCTLILAWSPEEAGRYLETYKA
notes: 15N-labeled (and perdeuterated) in some NMR experiments
B2: ERCC1-N110A/Y145A: mutant ERCC1 protein with N110A/Y145A double mutation (protein)
chain: T1 sequence (P07992 1-297) with N110A, Y145A
modifications: left off: small tags and cut ends
notes: mutant ERCC1 protein with N110A/Y145A double mutation
B3: XPA67-80 peptide (peptide)
peptide: KIIDTGGGFILEEE
notes: Synthetic peptide made by solid phase methods, residues 67-80 of XPA; also called XPA peptide; synthetic XPA fragment
B4: XPA67-80^F75A mutant peptide (peptide)
peptide: KIIDTGGGAILEEE
notes: Synthetic peptide, alanine substitution at Phe75 of XPA67-80
B5: XPA59-93 (peptide)
peptide: MANVKAAPKIIDTGGGFILEEEEEEEQKIGKVVHQ
notes: Expressed in E. coli from pET19bpps; The N-terminal (His)10 tag was cleaved with Prescission protease; 15N-labeled in some NMR experiments; also called XPA59-93 peptide; XPA59-93 fragment

Substitutions are numbered along the chain they refer to. In names and notes the source's numbering stands. Entries after “also recorded” stand apart in the source; their conditions may differ. Like-named read-outs stand apart in the source and are kept apart here.

Data set [1] relates to NER activity in XPF-deficient cell extracts. Kind of data set: In vitro NER assay in XPF-deficient cell extract supplemented with wild-type or mutant ERCC1-XPF. It is filed as biochemical. The following applies: cisplatin crosslink plasmid. The text has this:
Mutations in the XPA binding pocket of ERCC1 abolish NER in vitro. […] Mutant ERCC1 proteins were generated containing N110A or Y145A single mutations or a N110A/Y145A double mutation, and their activities compared to that of the wild-type ERCC1 protein.

In data set [2] the test system is UV20 Chinese Hamster Ovary cells. Nature of the data set: Restoration of UV resistance in ERCC1-deficient UV20 cells by lentivirally expressed ERCC1. Type of data set: cell-based. The method, then: Mutations in the XPA binding pocket of ERCC1 abolish NER in living cells. The ERCC1-N110A/Y145A double mutant protein was tested for its ability to interact with XPA and support NER activity in living cells. The double mutant and wild-type ERCC1 proteins were introduced into ERCC1-deficient UV20 Chinese Hamster Ovary cells using a lentiviral expression system. Proper expression of the ERCC1 proteins was detected using immunofluorescent detection using an antibody against the HA tag present on the lentivirally expressed ERCC1 protein. Two main parameters were compared for the wild-type and mutant proteins. Global NER activity was assessed by measuring the ability of the wild-type and double mutant ERCC1 proteins to restore UV resistance in UV-20 cells.

The test system of a further data set is UV20 cells. Nature of the data set: Recruitment of ERCC1 and XPA to local UV damage foci (irradiation through polycarbonate filters, immunofluorescence). It is filed as cell-based, Chinese Hamster. Conditions: UV-irradiated UV20 cells, 5 μM pore filters. As to the method:
The interaction of ERCC1 and XPA was investigated in living cells as follows (Volker et al., 2001, Gillet and Schärer, 2006): Cells were irradiated with UV irradiation through polycarbonate filters that are only translucent to UV light through their […]. This allows for the formation of spatially defined subnuclear region UV damage that can be detected as defined foci in fixed cells by antibodies against UV lesions in DNA as well as with antibodies against NER proteins recruited to these sites during the repair process.

The target in data set [3] is XPA (endogenous, in UV20 Chinese Hamster Ovary cells). Kind of data set: cell-based or functional assay.
The test system of data set [4] is NER activity in HeLa cell extracts. Nature of the data set: In vitro NER assay: excision of a 1,3-intrastrand cisplatin adduct from plasmid in HeLa cell extract with XPA peptide. It is filed as biochemical. Conditions: HeLa cell free extract, plasmid with 1,3-cisplatin intrastrand crosslink, peptide 46 nM to 92 μM.
The target in the next data set is T1, ERCC1-XPF. Kind of data set: Nuclease assay: incision of stem-loop DNA substrate by purified ERCC1-XPF. Type of data set: biochemical. The following applies: 92 μM peptide, 0.4 mM MnCl2. As to the method:
Nuclease assay. A substrate consisting of a 12 base pair stem with a 22 nucleotide loop (5′-[…](T)22[…]; SEQ ID NO:7) was 5′ end labeled using a T4 polynucleotide kinase and [γ-^32P]-ATP. […] The final reaction volume was 15 μl.

The target of another data set is T2, ERCC192-214. Kind of data set: 15N HSQC NMR chemical shift perturbation of 15N-labeled ERCC1. Type of data set: binding. The following applies: 15N HSQC. As to the method: FIG. 3 illustrates the binding of XPA67-80 in a shallow groove of ERCC1. (A) A comparison of the two dimensional HSQC spectra for ^15N-labeled ERCC192-214 in the presence and absence of an unlabeled XPA67-80 peptide. The ^15N HSQC spectra reveal significant chemical shift changes for some ERCC1 residues (labeled) in the absence or presence of unlabeled XPA67-80. (B) Combined average chemical shift perturbations are calculated as Δχave=[((Δχ1H)^2+(Δχ15N/5)^2)/2)]^1/2 for each backbone amide of ERCC1 and shown as a histogram.
NMR experiments and determination of the structure of XPA-ERCC1 complex. All NMR data were acquired in the NMR Buffer described above. […] Backbone assignments of the free ERCC192-214 and ERCC1-XPA67-80 complex were performed using a standard set of triple-resonance experiments: HNCA/HN(CO)CA, HN(CA)CB/HN(COCA)CB and HNCO/HN(CA)CO.
Identification of the ERCC1 binding site in complex with XPA. The binding site for XPA on the surface of ERCC1 (FIG. 2B) was identified using two dimensional HSQC experiments. […] The ^15N HSQC spectrum of the ERCC1-XPA complex is consistent with a slow-exchange regime, implying a dissociation equilibrium constant below 1 μM for the complex. The XPA binding site on the ERCC1 central domain was identified using the backbone assignments for […] alone and in complex with XPA (see below). […]

The target in a further data set is T4, XPA1-273 (Homo sapiens (Human), UniProt P23025 1-273).
T4 construct: Cloned into pET19bpps; His10 tag cleaved with Prescission protease; also called full length XPA protein
Kind of data set: gel filtration (S100) of the complex; ERCC1 central domain construct (92-214 or 96-214) not specified. In general terms: Size exclusion chromatography separates by hydrodynamic size, large species first.

The target of a further data set is T5, XPA59-273 (Homo sapiens (Human), UniProt P23025 59-273).
T5 construct: Cloned into pET19bpps; His10 tag cleaved with Prescission protease
The data set is described as above.

Data set [5] has as its target B1. Nature of the data set: 15N HSQC of the ERCC1-XPA complex, slow-exchange regime.
Data set [6] concerns the target T3, ERCC196-214 (central domain of ERCC1, …). Nature of the data set: competition titration, fluorescence anisotropy; reference is DNA binding to the ERCC1 central domain (1.5 µM). In general terms: Polarisation of emitted light reports the rotation of a fluorescent probe.
The target of data set [7] is B1. Nature of the data set: competition with 6FAM-labeled single-stranded 40mer DNA for ERCC1, fluorescence polarization, best fit to Eq. 9 (legend of FIG. 7).
Data set [8] concerns the target T3, ERCC196-214 (central domain of ERCC1, …). Nature of the data set: competition with 6FAM-labeled single-stranded 40mer DNA for ERCC1, fluorescence anisotropy, fit to a competitive binding model (Eq. 9).
Data set [9] deals with B1. Nature of the data set: 15N HSQC of 15N-labeled ERCC1 with added mutant peptide (data not shown).
Data set [10] addresses B1. Nature of the data set: sedimentation equilibrium analytical ultracentrifugation.

T4 sequence (P23025 whole entry): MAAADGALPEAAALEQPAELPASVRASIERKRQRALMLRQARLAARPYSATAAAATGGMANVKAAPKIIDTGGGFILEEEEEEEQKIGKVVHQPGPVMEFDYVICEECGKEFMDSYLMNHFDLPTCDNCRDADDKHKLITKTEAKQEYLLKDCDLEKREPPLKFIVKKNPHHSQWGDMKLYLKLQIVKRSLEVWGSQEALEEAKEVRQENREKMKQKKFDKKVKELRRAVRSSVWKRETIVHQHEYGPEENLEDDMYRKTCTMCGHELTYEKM

For the molecule “wild-type ERCC1: wild-type ERCC1 protein, expressed as heterodimer with XPF in insect cells or lentivirally in UV20 cells”, the “NER activity restored by ERCC1 (heterodimer with XPF)” value in data set [1] is on record as “restored NER activity”. The “restoration of UV resistance” value in data set [2] (doses of 1, 2, 4 and 10 J/m^2) is listed as “fully restored UV resistance”. Besides, in the data set on UV20 cells, the “recruitment of ERCC1 to sites of nuclear UV damage” value is reported as “colocalized at sites containing 6-4 photoproducts”.
Turning to “ERCC1-N110A/Y145A double mutant protein with HA tag, lentivirally expressed in UV20 Chinese Hamster Ovary cells (from UniProt P07992 1-297)”, in [3], the UV resistance of UV20 cells is below 50%.
“XPA67-80^F75A: mutant XPA67-80 peptide with alanine substitution at Phe75 (KIIDTGGGAILEEE)”: the “effect on NER excision of the lesion-containing oligonucleotide” value in [4] is listed as “did not affect NER activity; also recorded: has no effect”. Further, in the data set with ERCC1-XPF, the “effect on intrinsic nuclease activity of ERCC1-XPF” value is on record as “do not affect”. The “binding to 15N-labeled ERCC1 by chemical shift perturbation” value with ERCC192-214 was “does not bind to ERCC1”.
With B1, the binding result with XPA1-273 and with XPA59-273 was “binds” each time.
B2: the “NER activity restored by ERCC1 (heterodimer with XPF)” value in data set [1] is reported as “only marginal NER activity”. The “restoration of UV resistance” value in data set [2] is reported as “less than 50%”. Besides, the “recruitment of ERCC1 to sites of nuclear UV damage” value in the data set with UV20 cells was “not recruited to sites of active NER”.
Take B3: the Kd was below 1000 nM in [5], 300 nM in data set [7] and 540 nM in data set [8]. The “fold higher affinity than single stranded DNA” value in data set [6] is around 3 fold.
B4: the binding result in data set [9] was “no binding”.
With B5, in data set [10], the binding result is given as “binds”.

One may read the Kd as the free concentration of one partner at which half of the binding sites on the other are occupied at equilibrium, for simple one-to-one binding. A lower Kd goes with tighter binding.
